# Source: US20210017240A1 (ACCESS BUSINESS GROUP INTERNATIONAL, published 2021)
# T1: human recombinant renin (human, UniProt P00797 67-406, limits assumed)
# T1 sequence (looked up): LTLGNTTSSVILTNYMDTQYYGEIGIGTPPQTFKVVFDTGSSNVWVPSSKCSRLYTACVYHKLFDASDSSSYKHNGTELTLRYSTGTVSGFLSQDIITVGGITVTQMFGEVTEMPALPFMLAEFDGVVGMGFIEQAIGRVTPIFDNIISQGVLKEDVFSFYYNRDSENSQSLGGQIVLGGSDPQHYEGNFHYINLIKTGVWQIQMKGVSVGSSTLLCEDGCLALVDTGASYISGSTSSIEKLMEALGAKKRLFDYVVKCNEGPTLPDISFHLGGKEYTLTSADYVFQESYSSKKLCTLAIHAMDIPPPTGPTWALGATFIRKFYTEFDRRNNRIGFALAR
# Biological target: angiotensin converting enzyme (ACE)
# Experiment: cell-based or functional assay
row,Binder,"IC50 of in vitro ACE activity inhibition (FAPGG substrate, absorbance at 345 nM) [µg/mL]"
1,"YFVP [isolated peptide 1, YFVP (Tyr-Phe-Val-Pro)]",250
2,"SGRDP [isolated peptide 2, SGRDP (Ser-Gly-Arg-Asp-Pro)]",510

# Next, values leading:
row,"IC50 of in vitro ACE activity inhibition (FAPGG substrate, absorbance at 345 nM) [µg/mL]",Binder
1,21,"MVWGP [isolated peptide 3, MVWGP (Met-Val-Trp-Gly-Pro)]"
2,550,"TGSYTEGWS [isolated peptide 4, TGSYTEGWS (Thr-Gly-Ser-Tyr-Thr-Glu-Gly-Trp-Ser)]"

# Biological target: T1, human recombinant renin
# Experiment: cell-based or functional assay
row,Binder,% Inhibition of renin activity at 1 mg/mL peptide (fluorometric Renin Inhibitor Screening Assay Kit) [%]
1,"YFVP [isolated peptide 1, YFVP (Tyr-Phe-Val-Pro)]",-40.5
2,"SGRDP [isolated peptide 2, SGRDP (Ser-Gly-Arg-Asp-Pro)]",-54.5

# Other lines, results leading:
row,% Inhibition of renin activity at 1 mg/mL peptide (fluorometric Renin Inhibitor Screening Assay Kit) [%],Binder
1,-46.4,"MVWGP [isolated peptide 3, MVWGP (Met-Val-Trp-Gly-Pro)]"
2,107,"TGSYTEGWS [isolated peptide 4, TGSYTEGWS (Thr-Gly-Ser-Tyr-Thr-Glu-Gly-Trp-Ser)]"
